Measured values from patent US20240034757A1 (OXFORD UNIVERSITY INNOVATION, published 2024).
Changes are numbered by the printed parent chain. Read-outs that look alike come from different tables or passages of the source.

T1: CXCL13_HUMAN (human, UniProt O43927 23-109)
T1 sequence: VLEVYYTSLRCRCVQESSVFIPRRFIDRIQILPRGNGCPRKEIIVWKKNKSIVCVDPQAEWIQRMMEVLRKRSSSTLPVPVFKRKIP

T2: CXCL10_HUMAN (human, UniProt P02778 22-98)
T2 sequence: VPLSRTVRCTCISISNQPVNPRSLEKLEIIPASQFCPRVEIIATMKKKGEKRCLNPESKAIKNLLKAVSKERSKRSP

T3: CXCL9_HUMAN (human, UniProt Q07325 23-125)
T3 sequence: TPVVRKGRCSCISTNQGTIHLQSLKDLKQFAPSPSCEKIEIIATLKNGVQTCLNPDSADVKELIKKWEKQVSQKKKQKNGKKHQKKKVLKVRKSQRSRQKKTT

T4: CXCL11_HUMAN (human, UniProt O14625 22-94)
T4 sequence: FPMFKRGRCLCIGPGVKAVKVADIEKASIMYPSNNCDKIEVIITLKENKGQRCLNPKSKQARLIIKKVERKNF

T5: CXCL14_HUMAN (human, UniProt O95715 35-111)
T5 sequence: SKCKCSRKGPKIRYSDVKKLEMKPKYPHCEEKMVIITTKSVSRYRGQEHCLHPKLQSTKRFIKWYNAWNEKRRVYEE

T6: CXCL1_HUMAN (human, UniProt P09341 35-107)
T6 sequence: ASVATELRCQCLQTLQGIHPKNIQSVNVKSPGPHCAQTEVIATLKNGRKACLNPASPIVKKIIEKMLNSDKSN

T7: CXCL6_HUMAN (human, UniProt P80162 38-114)
T7 sequence: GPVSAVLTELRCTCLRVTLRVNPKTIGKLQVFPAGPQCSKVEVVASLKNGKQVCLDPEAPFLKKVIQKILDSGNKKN

T8: CXCL4_HUMAN (human, UniProt P02776 32-101)
T8 sequence: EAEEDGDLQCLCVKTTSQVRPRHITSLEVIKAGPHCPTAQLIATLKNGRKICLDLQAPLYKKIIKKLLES

T9: CXCL8_HUMAN (human, UniProt P10145 28-99)
T9 sequence: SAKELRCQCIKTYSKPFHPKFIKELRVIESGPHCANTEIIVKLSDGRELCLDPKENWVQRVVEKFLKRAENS

T10: CXCL7_HUMAN (human, UniProt P02775 59-128)
T10 sequence: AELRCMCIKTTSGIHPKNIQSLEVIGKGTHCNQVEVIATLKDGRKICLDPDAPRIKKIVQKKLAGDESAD

T11: P991_AMBCA (Amblyomma cajennense, UniProt A0A023FFD0 29-136)
T11 sequence: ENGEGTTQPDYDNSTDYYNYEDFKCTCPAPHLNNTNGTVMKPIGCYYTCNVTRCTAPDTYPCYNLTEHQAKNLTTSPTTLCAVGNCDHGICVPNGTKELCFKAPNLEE

T12: P672_RHIPU (Rhipicephalus pulchellus, UniProt L7MC74 22-125)
T12 sequence: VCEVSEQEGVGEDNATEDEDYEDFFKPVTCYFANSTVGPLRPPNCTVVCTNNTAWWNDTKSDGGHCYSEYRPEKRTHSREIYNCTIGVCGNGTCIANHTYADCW

T13: P1243_AMBAM (Amblyomma americanum, UniProt A0A0C9S461 26-123)
T13 sequence: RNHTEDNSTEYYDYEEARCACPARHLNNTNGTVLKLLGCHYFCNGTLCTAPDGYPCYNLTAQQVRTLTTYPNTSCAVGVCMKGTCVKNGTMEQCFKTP

T14: P546_AMBCA (Amblyomma cajennense, UniProt A0A023FBW7 22-118)
T14 sequence: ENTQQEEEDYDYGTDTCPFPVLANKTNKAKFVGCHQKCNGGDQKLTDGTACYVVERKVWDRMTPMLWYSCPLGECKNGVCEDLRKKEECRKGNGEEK

T15: P1183_AMBTR (Amblyomma triste, UniProt A0A023G9N9 26-115)
T15 sequence: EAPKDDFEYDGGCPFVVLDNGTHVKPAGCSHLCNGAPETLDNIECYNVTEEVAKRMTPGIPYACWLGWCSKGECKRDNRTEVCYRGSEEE

T16: P467_RHIPU (Rhipicephalus pulchellus, UniProt L7M8Z8 22-127)
T16 sequence: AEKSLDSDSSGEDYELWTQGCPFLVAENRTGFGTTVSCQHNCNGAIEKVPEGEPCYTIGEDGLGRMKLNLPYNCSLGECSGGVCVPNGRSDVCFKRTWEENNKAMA

T17: P985_AMBPA (Amblyomma parvum, UniProt A0A023FT45 25-132)
T17 sequence: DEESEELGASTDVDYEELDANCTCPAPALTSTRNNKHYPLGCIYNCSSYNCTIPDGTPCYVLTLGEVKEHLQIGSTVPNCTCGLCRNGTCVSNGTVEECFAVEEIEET

T18: P1181_AMBMA (Amblyomma maculatum, UniProt G3MIX6 26-115)
T18 sequence: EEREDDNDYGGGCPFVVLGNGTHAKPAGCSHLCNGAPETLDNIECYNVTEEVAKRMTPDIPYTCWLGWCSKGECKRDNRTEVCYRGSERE

T19: P1182_AMBMA (Amblyomma maculatum, UniProt G3MJ83 27-115)
T19 sequence: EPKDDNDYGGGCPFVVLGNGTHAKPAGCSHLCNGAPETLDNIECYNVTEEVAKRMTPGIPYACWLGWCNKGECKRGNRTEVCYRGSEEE

T20: P974_AMBCA (Amblyomma cajennense, UniProt A0A023FDY8 22-118)
T20 sequence: T14 sequence with E8Q, S69E, E88D

T21: P1180_AMBTR (Amblyomma triste, UniProt A0A023G6B6 26-116)
T21 sequence: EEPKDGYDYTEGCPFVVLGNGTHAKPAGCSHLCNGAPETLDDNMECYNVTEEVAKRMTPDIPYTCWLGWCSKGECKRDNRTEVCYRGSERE

T22: P983_AMBCA (Amblyomma cajennense, UniProt A0A023FFB5 22-119)
T22 sequence: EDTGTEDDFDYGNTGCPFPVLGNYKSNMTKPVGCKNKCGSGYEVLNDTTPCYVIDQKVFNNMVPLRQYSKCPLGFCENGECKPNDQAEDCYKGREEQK

B1: P1162_IXORI (other)
chain: LNDEELFTVDYCGTNCTQQPNGSWTTCPGNCSCYHEDGKTDGFCLSTEYTDFTQFPNLTSEEMDAATPRPE
B2: P1077_IXORI (other)
chain: GSKQLIGPQSSTNSIKAEFCDTNCTAGTNGIWNGCSGDCFCTHVGNSTEGRCMKITGFDEYPTSEAEE
B3: CCL15_HUMAN (ligand)
chain: QFTNDAETELMMSKLPLENPVVLNSFHFAADCCTSYISQSIPCSLMKSYFETSSECSKPGVIFLTKKGRQVCAKPSGPGVQDCMKKLKPYSI
B4: P1229_IXORI (other)
chain: DDEFFTVDYCGMNCTLQQDGSWTPCTQKNAECKCYHESGSSVGLCLSTAYTDFNQFGDPNNSDLDAATPRHPDASSR
B5: CCL4L1_HUMAN (ligand)
chain: APMGSDPPTACCFSYTARKLPRNFVVDYYETSSLCSQPAVVFQTKRGKQVCADPSESWVQEYVYDLELN
B6: CCL11_HUMAN (ligand)
chain: not shown
B7: CCL3_HUMAN (ligand)
chain: SLAADTPTACCFSYTSRQIPQNFIADYFETSSQCSKPGVIFLTKRSRQVCADPSEEWVQKYVSDLELSA
B8: CCL4_HUMAN (ligand)
chain: B5 chain with G47S
B9: CCL16_HUMAN (ligand)
chain: QPKVPEWVNTPSTCCLKYYEKVLPRRLVVGYRKALNCHLPAIIFVTKRNREVCTNPNDDWVQEYIKDPNLPLLPTRNLSTVKIITAKNGQPQLLNSQ
B10: P1104_IXORI (other)
chain: ESKEASASQGPGKSFKVEFCETNCTENNGVWSGCTGDCICVSVGDSKEGRCMDLGDKVIDTPVAQG

Columns and labels:
CXCL13_HUMAN = target: T1, CXCL13_HUMAN; assay: BLI
CXCL10_HUMAN = target: T2, CXCL10_HUMAN; assay: BLI
CXCL12_HUMAN = CXCL12_HUMAN (human, UniProt P48061 22-89); assay: BLI
CXCL9_HUMAN = target: T3, CXCL9_HUMAN; assay: BLI
CXCL11_HUMAN = target: T4, CXCL11_HUMAN; assay: BLI
CXCL14_HUMAN = target: T5, CXCL14_HUMAN; assay: BLI
CXCL1_HUMAN = target: T6, CXCL1_HUMAN; assay: yeast surface display FACS re-test; also: test concentration or dose not given here
CXCL6_HUMAN = target: T7, CXCL6_HUMAN; assay: BLI [Cont.]
CXCL4_HUMAN = target: T8, CXCL4_HUMAN; assay: BLI [Cont.]
CXCL8_HUMAN = target: T9, CXCL8_HUMAN; assay: BLI [Cont.]
CXCL7_HUMAN = target: T10, CXCL7_HUMAN; assay: BLI [Cont.]
P991_AMBCA = target: T11, P991_AMBCA; assay: BLI
P672_RHIPU = target: T12, P672_RHIPU; assay: BLI
P1243_AMBAM [1] = target: T13, P1243_AMBAM; assay: BLI
P1243_AMBAM [2] = target: T13, P1243_AMBAM; assay: BLI; remark: listed apart in the source
P546_AMBCA = target: T14, P546_AMBCA; assay: BLI
P1183_AMBTR = target: T15, P1183_AMBTR; assay: BLI
P467_RHIPU = target: T16, P467_RHIPU; assay: BLI
P985_AMBPA = target: T17, P985_AMBPA; assay: BLI
P1181_AMBMA = target: T18, P1181_AMBMA; assay: BLI
P1182_AMBMA = target: T19, P1182_AMBMA; assay: BLI
P974_AMBCA = target: T20, P974_AMBCA; assay: BLI
P1180_AMBTR = target: T21, P1180_AMBTR; assay: BLI
P983_AMBCA = target: T22, P983_AMBCA; assay: BLI

CXCL12_HUMAN, sequence (P48061 22-89 limits assumed): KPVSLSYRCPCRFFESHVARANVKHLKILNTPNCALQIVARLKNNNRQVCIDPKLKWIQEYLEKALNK

Row | Binder | binding result (CXCL13_HUMAN) | binding result (CXCL10_HUMAN) | binding result (CXCL12_HUMAN) | binding result (CXCL9_HUMAN) | binding result (CXCL14_HUMAN) | % cells over threshold fluorescence (CXCL1_HUMAN) [%] | Kd (P991_AMBCA) [nM] | Kd (P672_RHIPU) [nM] | Kd (P1243_AMBAM [1]) [nM] | Kd (P1243_AMBAM [2]) [nM] | Kd (P546_AMBCA) [nM] | Kd (P1183_AMBTR) [nM] | Kd (P467_RHIPU) [nM] | Kd (P985_AMBPA) [nM] | Kd (P1181_AMBMA) [nM] | Kd (P1182_AMBMA) [nM] | Kd (P974_AMBCA) [nM] | Kd (P1180_AMBTR) [nM] | Kd (P983_AMBCA) [nM] | further results
1 | B1 | no binding (tested: 300 nM) | no binding (tested: 300 nM) | no binding (tested: 300 nM) | no binding (tested: 300 nM) | no binding (tested: 300 nM) | 72 |  |  |  |  |  |  |  |  |  |  |  |  |  | binding result (CXCL11_HUMAN): no binding (tested: 300 nM); binding result (CXCL6_HUMAN): no binding (tested: 300 nM)
2 | B2 | no binding (tested: 300 nM) | no binding (tested: 300 nM) | no binding (tested: 300 nM) | no binding (tested: 300 nM) | no binding (tested: 300 nM) | 50 |  |  |  |  |  |  |  |  |  |  |  |  |  | binding result (CXCL4_HUMAN): no binding (tested: 300 nM); binding result (CXCL8_HUMAN): no binding (tested: 300 nM); binding result (CXCL7_HUMAN): no binding (tested: 300 nM)
3 | B3 |  |  |  |  |  |  | 159 | 32 | 9.61 | 9.61 |  |  |  |  |  |  |  |  |  | 
4 | B4 | no binding (tested: 300 nM) | no binding (tested: 300 nM) | no binding (tested: 300 nM) | no binding (tested: 300 nM) | no binding (tested: 300 nM) | 66 |  |  |  |  |  |  |  |  |  |  |  |  |  | binding result (CXCL6_HUMAN): no binding (tested: 300 nM)
5 | B5 |  |  |  |  |  |  | 0.827 |  | 35.4 | 35.4 | 8.9 | 48 | 4.72 | 21 | 35 | 92 | 23.2 | 20 | 2.9 | 
6 | B6 |  |  |  |  |  |  | 3.43 |  | 6.03 |  | 8.7 | 8.5 | 1.4 | 8 | 20 | 28 | 17 | 33 | 21 | 
7 | B7 |  |  |  |  |  |  | 1.08 | 2.6 | 5.3 | 5.3 | 15 |  | 0.363 | 8.9 | 2.2 | 5.4 | 7.97 | 1.1 | 3.5 | 
8 | B8 |  |  |  |  |  |  | 5.82 |  | 15.3 | 15.3 | 27 | 78 | 13.6 | 46 | 53 | 63 | 30.2 | 66 | 8 | 
9 | B9 |  |  |  |  |  |  | 1.28 | 3.3 | 0.926 | 0.925 |  |  | 14.1 | 45 |  |  |  |  |  | 
10 | B10 |  | no binding (tested: 300 nM) |  | no binding (tested: 300 nM) | no binding (tested: 300 nM) | 65 |  |  |  |  |  |  |  |  |  |  |  |  |  | Kd (CXCL13_HUMAN): 220 nM; Kd (CXCL12_HUMAN): 67.8 nM; binding result (CXCL11_HUMAN): no binding (tested: 300 nM); binding result (CXCL4_HUMAN): no binding (tested: 300 nM); binding result (CXCL8_HUMAN): no binding (tested: 300 nM); binding result (CXCL7_HUMAN): no binding (tested: 300 nM)
